The target in this test is Helicobacter pylori dimeric oxidoreductase DsbK (HP0231), native (Helicobacter pylori). Nature of the test: SEC; size exclusion; conditions not shown (Supplementary Table S3).

As a reminder, the stoichiometry N is the number of molecules, sites or subunits per partner or assembly. “Helicobacter pylori dimeric oxidoreductase DsbK (HP0231), native (enzyme)” yielded a stoichiometry N of 2.

The values are drawn from PMC4960241.
